22 molecules from patent publication US20260167728A1 (published 2026) can be followed below.

The target of one assay is T1, cynomolgus monkey EGFR (cynomolgus monkey, UniProt A0A2K5WK39 25-645).
T1 construct: also called Cyno EGFR
Nature of the assay: SPR Biacore 37 C. In general terms: Surface plasmon resonance follows binding to a sensor surface in real time, without labels.

The target in assay [1] is T2, human EGFR (human, UniProt P00533 25-645, limits assumed).
T2 construct: on HT-29 cells in the cytotoxicity assay; also called epidermal growth factor receptor
Nature of the assay: SPR Biacore 37 C.

In assay [2] the target is T3, huCD3e-mFc (human, UniProt P07766 23-126).
T3 construct: not shown: mFc, not described
T3 sequence (P07766 23-126): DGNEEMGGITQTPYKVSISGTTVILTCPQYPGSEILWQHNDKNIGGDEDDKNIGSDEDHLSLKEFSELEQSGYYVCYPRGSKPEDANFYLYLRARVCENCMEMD
Nature of the assay: Pool 3 screen, R2.

Assay [3] has as its target T3, huCD3e-mFc. Nature of the assay: Pool 3 screen.
Assay [4] deals with T3, huCD3e-mFc. Kind of assay: Pool 3 screen, R3.
For assay [5], the target named is T2, human EGFR. Nature of the assay: BLI, room temperature. The method, then:
Each construct was expressed in small-scale and purified. Thermal stability was determined by Differential Scanning Fluorimetry. Melting temperature (Tₘ) determined by Differential Scanning Fluorimetry experiments described herein were performed either in duplicate or triplicate using GloMelt™ dye and QuantStudio5™. GloMelt™ dye undergoes fluorescence enhancement upon binding to hydrophobic regions of denatured proteins. Therefore, the dye can be used to detect protein unfolding or measure thermal stability. GloMelt™ dye is optimized for detection in the SYBR® Green channel of qPCR instruments. The Differential Scanning Fluorimetry experiments were performed in 96-well plates with 10 μg protein/reaction (equal to 0.5 mg/mL final protein concentration), reaction buffer, and GloMelt™ 10× dye according to manufacturer's instructions. Fluorescence of 96-well plates was read and melt curve plots were generated in the QuantStudio5™ qPCR system. Binding affinity was analyzed with bio-layer interferometry at room temperature with human EGFR as the antigen.
Background: Biolayer interferometry detects binding as a change in optical thickness at a sensor tip.

Substitutions are numbered along the chain they refer to.

B1: AMX-525 (1x-C) (bispecific antibody)
chain: GTSESATPESDIQMTQSPSSLSASVGDRVTITCQASQDISNYLNWYQQKPGKAPKLLIYDASNLETGVPSRFSGSGSGTDFTFTISSLQPEDIATYYCQHFDHLPLAFGQGTKVEIKSESATPESGPGTSPGATPESGPGTSESATPQVQLQESGPGLVKPSETLSLTCTVSGGSVSSGDYYWTWIRQPPGKGLEWIGHIYYSGNTNYNPSLKSRVTISVDTSKNQFSLKLSSVTAADTAVYYCARDRVTGAFDIWGQGTLVTVSSGGGGSELVVTQEPSLTVSPGGTVTLTCRSSNGAVTSSNYANWVQQKPGQAPRGLIGGTNKRAPGTPARFSGSLLEGKAALTLSGVQPEDEAVYYCALWYPNLWVFGGGTKLTVLSESATPESGPGTSPGATPESGPGTSESATPEVQLVESGGGIVQPGGSLRLSCAASGFTFSTYAMNWVRQAPGKGLEWVGRIRTKRNDYATYYADSVKGRFTISRDDSKNTLYLQMNSLKTEDTAVYYCVRHENFGNSYVSWFAHWGQGTLVTVSSGTATPESGPGEAGRSASHTPAGLTGPATPESGPGTSESATPESGPGSPAGSPTSTEEGTSESATPESGPGSEPATSGSETPGTSESATPESGPGTSTEPSEGSAPGTSTEPSEGSAPGTSTEPSEGSAPGTSTEPSEGSAPGTSTEPSEGSAPGTSTEPSEGSAPGSPAGSPTSTEEGTSTEPSEGSAPGTSESATPESGPGSEPATSGSETPGTSESATPESGPGSEPATSGSETPGTSESATPESGPGTSTEPSEGSAPGTSESATPESGPGSPAGSPTSTEEGSPAGSPTSTEEGSPAGSPTSTEEGTSESATPESGPGTSTEPSEGSAPGTSESATPESGPGSEPATSGSETPGTSESATPESGPGSEPATSGSETPGTSESATPESGPGTSTEPSEGSAPGSPAGSPTSTEEGTSESATPESGPGSEPATSGSETPGTSESATPESGPGSPAGSPTSTEEGSPAGSPTSTEEGTSTEPSEGSAPGTSESATPESGPGTSESATPESGPGTSPSATPESGPGSEPATSGSETPGSEPATSGSETPGSPAGSPTSTEEGTSTEPSEGSAPGTSTEPSEGSAPGSEPATSGSETPGTSESAGEPEA
In the assay with cynomolgus monkey EGFR, B1 registered a dissociation constant Kd of 0.238 nM, a koff of 0.00051 s⁻¹ and a kon of 2.12e+06 M⁻¹ s⁻¹. In the assay with human EGFR [1], the dissociation constant Kd is 0.184 nM, the koff is 0.00036 s⁻¹ and the on-rate constant (kon) is 2e+06 M⁻¹ s⁻¹.

B2: AC3797 (CD3.293) (scFv, V domains shown)
VH: EVQLVESGGGIVQPGGSLRLSCAASGFTFSTYAMNWVRQAPGKGLEWVGRIRTKRNNYATYYADSVKGRFTISRDDSKNTVYLQMNSLKTEDTAVYYCVRHENFGNSYVSWFAHWGQGTLVTVSS
VL: ELVVTQEPSLTVSPGGTVTLTCRSSNGAVTSSNYANWVQQKPGQAPRGLIGGTNKRAPGTPARFSGSALGGKAALTLSGVQPEDEAVYYCALWYPNLWVFGGGTKLTVL
notes: Pool 3 format (remarks)
Turning to B2, the figures for the dissociation constant (Kd) in the assay with huCD3e-mFc [2] and with huCD3e-mFc [3] were 3.72 nM and 3.8 nM, respectively.

B3: AC3881 (CD3.377) (scFv, V domains shown)
VH: B2 VH with Y61T
VL: B2 VL with A68L
notes: Pool 3 format (remarks)
Take B3: the values for the Kd in the assay with huCD3e-mFc [4] and in the assay with huCD3e-mFc [3] were 10.4 nM and 10.7 nM, respectively.

B4: AC3885 (CD3.381) (scFv, V domains shown)
VH: B2 VH with N106A
VL: B2 VL with A68L
notes: Pool 3 format (remarks)
In the assay with huCD3e-mFc [4], B4 yielded a Kd of 4.2 nM.

B5: AC3659 (CD3.228) (bispecific antibody, V domains shown)
VH: B2 VH
VL: B2 VL with A68L
notes: Pool 2 format (remarks)
As for B5, in the assay with huCD3e-mFc [3], binding was put at a Kd of 5.14 nM.

B6: AC3886 (CD3.382) (scFv, V domains shown)
VH: B2 VH with S107A
VL: B2 VL with A68L
notes: Pool 3 format (remarks)
Take B6: in the assay with huCD3e-mFc [2], the equilibrium dissociation constant (Kd) stood at 21.2 nM.

B7: AC3803 (CD3.299) (scFv, V domains shown)
VH: B2 VH
VL: B2 VL with A68L, A74G
notes: Pool 3 format (remarks)
B7 had a Kd with huCD3e-mFc [2] of 7.96 nM.

B8: AC3878 (CD3.374) (scFv, V domains shown)
VH: B2 VH with V48G
VL: B2 VL with A68L
notes: Pool 3 format (remarks)
In turn, B8 yielded a dissociation constant (Kd) with huCD3e-mFc [2] of 17 nM.

B9: AC3860 (CD3.356) (scFv, V domains shown)
VH: B2 VH with R55T, N57D, V81A
VL: B2 VL
notes: Pool 3 format (remarks)
With B9, the equilibrium dissociation constant (Kd) with huCD3e-mFc [4] came out at 19.7 nM; with huCD3e-mFc [3] it was 29.4 nM.

B10: AC3801 (CD3.297) (scFv, V domains shown)
VH: B2 VH
VL: B2 VL with A68L, L69G
notes: Pool 3 format (remarks)
Take B10: the results for the Kd with huCD3e-mFc [2] and with huCD3e-mFc [3] were 21.2 nM and 3.92 nM, respectively.

B11: AC3805 (CD3.301) (scFv, V domains shown)
VH: B2 VH with N57D, V81A
VL: B2 VL with A68L
notes: Pool 3 format (remarks)
B11: the Kd with huCD3e-mFc [4] amounted to 4.4 nM; with huCD3e-mFc [3] it was 5.53 nM.

B12: AC3884 (CD3.380) (scFv, V domains shown)
VH: B2 VH with A59T
VL: B2 VL with A68L
notes: Pool 3 format (remarks)
B12 registered a Kd with huCD3e-mFc [3] of 4.54 nM.

B13: AC3850 (CD3.346) (scFv, V domains shown)
VH: B2 VH with R55T
VL: B2 VL with A68L
notes: Pool 3 format (remarks)
Consider B13, for which the dissociation constant (Kd) is 10.8 nM with huCD3e-mFc [2] and 9.83 nM with huCD3e-mFc [3].

B14: AC3800 (CD3.296) (scFv, V domains shown)
VH: B2 VH
VL: B2 VL with A68L, L69E
notes: Pool 3 format (remarks)
As for B14, the Kd was 17 nM with huCD3e-mFc [2] and 4.74 nM with huCD3e-mFc [3].

B15: AC3813 (CD3.309) (scFv, V domains shown)
VH: B2 VH with N57D, V81A
VL: B2 VL with A68L, G70E
notes: Pool 3 format (remarks)
With B15, the Kd with huCD3e-mFc [4] was determined as 5.4 nM; in the assay with huCD3e-mFc [3], 5.82 nM.

B16: AC3798 (CD3.294) (scFv, V domains shown)
VH: B2 VH
VL: B2 VL with A68G
notes: Pool 3 format (remarks)
Regarding B16, the values for the dissociation constant Kd with huCD3e-mFc [2] and in the assay with huCD3e-mFc [3] were 5.75 nM and 3.05 nM, respectively.

B17: AC3883 (CD3.379) (scFv, V domains shown)
VH: B2 VH with Y62W
VL: B2 VL with A68L
notes: Pool 3 format (remarks)
Turning to B17, in the assay with huCD3e-mFc [3], the dissociation constant Kd came out at 4.19 nM.

B18: AC3809 (CD3.305) (scFv, V domains shown)
VH: B2 VH with N57D, V81A
VL: B2 VL with A68L, L69E
notes: Pool 3 format (remarks)
Consider B18, for which the Kd came to 4.6 nM in the assay with huCD3e-mFc [4] and 6.28 nM with huCD3e-mFc [3].

B19: AC3660 (CD3.229) (bispecific antibody, V domains shown)
VH: B2 VH with S30N, R55T
VL: B2 VL with A68L
notes: Pool 2 format (remarks)
As for B19, binding in the assay with huCD3e-mFc [3] was characterised by a dissociation constant (Kd) of 13.6 nM.

B20: AC3811 (CD3.307) (scFv, V domains shown)
VH: B2 VH with N57D, V81A
VL: B2 VL with A68L, L69D
notes: Pool 3 format (remarks)
Take B20: the Kd with huCD3e-mFc [4] came out at 4.8 nM; with huCD3e-mFc [3] it was 6.35 nM.

B21: AC3802 (CD3.298) (scFv, V domains shown)
VH: B2 VH
VL: B2 VL with A68L, L69D
notes: Pool 3 format (remarks)
For B21, the results for the equilibrium dissociation constant (Kd) with huCD3e-mFc [2] and with huCD3e-mFc [3] were 8 nM and 4.07 nM, respectively.

B22: AC1955 (EGFR.2/CD3.9 paTCE) (bispecific antibody)
VL: DIQMTQSPSSLSASVGDRVTITCQASQDISNYLNWYQQKPGKAPKLLIYDASNLETGVPSRFSGSGSGTDFTFTISSLQPEDIATYFCQHFDHLPLAFGGGTKVEIK
VH: QVQLQESGPGLVKPSETLSLTCTVSGGSVSSGDYYWTWIRQSPGKGLEWIGHIYYSGNTNYNPSLKSRLTISIDTSKTQFSLKLSSVTAADTAIYYCVRDRVTGAFDIWGQGTMVTVSS
scFv: ELVVTQEPSLTVSPGGTVTLTCRSSTGAVTTSNYANWVQQKPGQAPRGLIGGTNKRAPGTPARFSGSLLGGKAALTLSGVQPEDEAEYYCALWYSNLWVFGGGTKLTVLGATPPETGAETESPGETTGGSAESEPPGEGEVQLLESGGGLVQPGGSLKLSCAASGFTFNTYAMNWVRQAPGKGLEWVARIRSKYNNYATYYADSVKDRFTISRDDSKNTAYLQMNNLKTEDTAVYYCVRHGNFGNSYVSWFAYWGQGTLVTVSS
notes: One polypeptide; also called EGFR-XPAT gen1; pJB0169
B22 yielded a dissociation constant Kd in the assay with human EGFR [5] of 0.72 nM.

The term Kd denotes the free concentration of one partner at which half of the binding sites on the other are occupied at equilibrium, for simple one-to-one binding. A word on the koff: it is the first-order rate constant of dissociation. For orientation: kon means the second-order rate constant of association.
